According to patent US5567302A, “Electrochemical system for rapid detection of biochemical agents that catalyze a redox potential change” (priority 1995, dated 1996):

Tested on: OC[C@H]1O[C@@H](Oc2c[nH]c3ccc(Br)c(Cl)c23)[C@H](O)[C@@H](O)[C@H]1O
Assay: purified protein, by the assay type
Details: other: β-D-galactosidase substrate; stated when explaining why the standard curve levels off at high enzyme amounts

## biotinylated β-D-galactosidase (Escherichia coli K-12)
  Km: 3000 µM
